The data set concerns the molecule itself. As to the kind of experiment: SEC; Hiload 16/600 Superdex 200 pg, 25 mM Tris-HCl pH 7.5, 100 mM NaCl, run without LMNG and with 0.01% LMNG; elution volumes compared with gel filtration standards. (In general: Size exclusion chromatography separates by hydrodynamic size, large species first.)

B1: Lipo-YcjN (diacylated lipoprotein form of E. coli YcjN, from the construct SP-YcjN-10H) (natural protein, E. coli K-12, UniProt P76042 21-430, looked up)
chain: CKEENKTNVSIEFMHSSVEQERQAVISKLIARFEKENPGITVKQVPVEEDAYNTKVITLSRSGSLPEVIETSHDYAKVMDKEQLIDRKAVATVISNVGEGAFYDGVLRIVRTEDGSAWTGVPVSAWIGGIWYRKDVLAKAGLEEPKNWQQLLDVAQKLNDPANKKYGIALPTAESVLTEQSFSQFALSNQANVFNAEGKITLDTPEMMQALTYYRDLTANTMPGSNDIMEVKDAFMNGTAPMAIYSTYILPAVIKEGDPKNVGFVVPTEKNSAVYGMLTSLTITAGQKTEETEAAEKFVTFMEQADNIADWVMMSPGAALPVNKAVVTTATWKDNDVIKALGELPNQLIGELPNIQVFGAVGDKNFTRMGDVTGSGVVSSMVHNVTVGKADLSTTLQASQKKLDELIEQH
modifications: diacylated at cysteine 21 (S-diacylglyceryl-cysteine, the new N terminus), acyl chain compositions [16:0, 16:0] and [16:0, 18:1]
notes: YcjN, E. coli K-12, expressed with its native N-terminal signal peptide; by intact mass the purified protein is the processed lipoprotein that begins at the diacylated cysteine 21; Expressed as the full-length precursor (SP-YcjN-10H); LC-MS masses of 46,699 and 46,726 Da fit the protein cut before C21 and diacylated; No tag removal is described; also called lipidated YcjN
On to B1, for which the binding result is reported as “binds”.

Values taken from PMC11543891, “Expression, purification, and characterization of diacylated Lipo-YcjN from Escherichia coli” (The Journal of Biological Chemistry, 2024).
